# Test results as given in publication doi:10.1101/2023.12.09.570830.
# Target: UmbC1 (untagged, in the Umb1 particle) (Streptomyces coelicolor A3(2) (endogenous))
# Assay: cryo-EM structure
substance,measurement,value
UmbB1 (natural protein),stoichiometry N,5
